Target: CD74 disordered region peptide (CLIP), …
Test: modified sandwich ELISA, fluorescence grade by the table's key

Substance: FlhG
- fluorescent signal (fluorescentsignal): 100000 to 250000

From patent US20250387450A1
